Test results taken from paper PMC6339873 (Frontiers in Microbiology, 2018).

Legend:
[1] = target: st_YfdX(YI), S. Typhi YfdX with Y100A and I137A (Salmonella enterica serovar Typhi); assay: […]; pH 7.5; […] (pH 7.5), 200 mM NaCl, 1 mM DTT, […]
[2] = target: st_YfdX(YI), S. Typhi YfdX with Y100A and I137A (Salmonella enterica serovar Typhi); assay: […]; pH 6.0; […] (pH 6.0), 200 mM NaCl, 1 mM DTT, […]
[3] = target: the molecule itself; assay: crystal structure; sitting-drop vapor diffusion at 18°C; crystal I and II at pH 4.6 (F222), crystal III at pH 5.0 (P222); crystals II and III from protein with 1 mM ZnCl2; the tetramer is seen in the crystal lattice
[4] = target: the molecule itself; assay: […]; pH 7.5; […] (pH 7.5), 200 mM NaCl, 1 mM DTT, […]
[5] = target: the molecule itself; assay: SEC-MALS; pH 10.0 (kp_YfdX, Supplementary Figure S1)
[6] = target: the molecule itself; assay: SEC-MALS; Superdex 75 Increase 10/300 GL; pH 6.0; st_YfdX proteins in 20 mM Bis-Tris-HCl (pH 6.0), 200 mM NaCl, 1 mM DTT, wild type at 10 and 30 mg/mL, mutants at 30 mg/mL; buffer and concentration of kp_YfdX not told

Molecule: st_YfdX(YI), S. Typhi YfdX with Y100A and I137A (domain or fragment)
- stoichiometry N [1]: 2
- stoichiometry N [2]: 2

B1: S. Typhi YfdX, residues 10-186 (st_YfdX), wild type (domain or fragment)
chain: MAATNMTDNVTLNNDKISGQAWQAMRDIGMSRFELFNGRTQKAEQLAAQAEKLLNDDSTDWNLYVKSDKKAPVEGDHYIRINSSITVAEDYLPAGQKNDAINKANQKMKEGDKKGTIEALKLAGVSVIENQELIPLQQTRKDVTTALSLMNEGKYYQAGLLLKSAQDGIVVDSQSVQLEHHHHHH
- stoichiometry N [3]: 4
- stoichiometry N [4]: 2

B2: K. pneumoniae YfdX (kp_YfdX), recombinant (natural protein)
chain: ATDSATAAPAAAATTQVQKEAADVLQVAVQGANAMRDIQFARLALFHGQPDSAKKLTDDAAALLAADDASWAKFVKTDAKAKMIADRYVIINASIALSEDYVATPEKESAIQSANEKLAKGDQKGAIDTLRLAGIGVIENQYLMPLNQTRKAVAQSQELLKAGKYYEANLVLKGAEEGIVVDSEMLVAGN
notes: YfdX of Klebsiella pneumoniae; Cloned into pET21a; PDB 3DZA (cited) holds a crystal structure of the same protein
- stoichiometry N [5]: 2
- stoichiometry N [6]: 4
